Test results: article PMC4259810

Experiments:
DLC1 500-1,091 = DLC1 500-1,091 (UniProt Q96QB1); assay: GST pull-down from cotransfected cells, GFP blot; conditions: reference: GST-(1–550)-WT; sites S120,S205,S422,S509
[1] = biological target: DLC1 Rho-GAP domain, 609-878 (UniProt Q96QB1); assay: GST pull-down from cotransfected cells, GFP blot; conditions: sites S120,S205,S422,S509

Substance	binding against the reference (DLC1 500-1,091)	binding against the reference ([1]; reference: GST-(1–550)-WT)	binding against the reference ([1]; reference: GST-DLC1(80–550)-WT)
DLC1 1-550 (from UniProt Q96QB1-1) GST-(1–550)-4A	stronger	stronger	–
DLC1 80-550 (from UniProt Q96QB1-1) GST-DLC1(80–550)-4A	–	–	stronger
